Literature values, collected in US20260070964A1, “IL-12 GENE THERAPY AND ANTI-VEGF COMBINATION FOR TREATING CANCER” (IMUNON, INC., priority 2022, published 2026).

Legend:
[1] = system: established tumors; settings: animal models
[2] = several experimental trials and an initial human trial
[3] = human clinical trial

## recombinant IL-12: recombinant interleukin-12 protein
[1]
  antitumor effects: profound T-cell mediated antitumor effects causing regression of established tumors
[2]
  toxicity on systemic administration: dose limiting toxicity
[3]
  toxicity on intraperitoneal administration: Dose limiting toxicity was also observed
